Measured values from the nanobody polyreactivity screen of Harvey et al. (2022).

Experiment: yeast display, Sf9 membrane polyspecificity reagent, FACS + sequencing; frameworks hold sequencing errors
Summary of the method: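 Nanobodies from a synthetic yeast display library (Saccharomyces cerevisiae BJ5465), induced 36–48 hours with galactose, were stained 1 hour at 4 °C with 10% biotinylated, detergent-solubilized Sf9 membrane reagent, enriched on streptavidin microbeads, then FACS-sorted. Anti-HA (expression) and streptavidin (reagent binding) fluorescence set low and high (top ~1%) gates. Polyreactivity labels come from the gate of origin. Genes were colony-PCR amplified, MiSeq 2 × 250 sequenced and filtered by CDR length.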
In the case of “QVQLVESGGGLVQAGGSLRLSCAASGSIFRGYTMGGYRQAPGKETELVAAISRSGGSTYYADSVKGRFTISRDNAKNTVYLQMNSLKPEDTAVYYCAADSFRTRAIYDYWGQGTQVTVSS”, the “polyreactivity (PSR sort gate)” value was “high polyreactivity”. With “QVQLVESGGGLVQAGGSLRLICAASGSTIGGYVMGWYRQAPGKERELVAAISRSGASTYYADSVKGRFTISRDNAKNTVYLQMNSLKQEDTAVYYCAAYQARGMDYWGQGTQVTVSS” the “polyreactivity (PSR sort gate)” value was “high polyreactivity”. In the case of “QVQLVESGGGLVQAGGSLRLSCAASGITFSRNARGGERQAPGQERELVATITSGGSTNYADSVKGRFTISRDNAKNTVYLQMNSLKPEDTAVFYCNAVWNTFISGRSYDYWGQGTQVTVSS”, the “polyreactivity (PSR sort gate)” value was “low polyreactivity”. With “QLQHVESGAVLVQAAGSLRLICAASGLIFPYNAMGWSRQAPGKERELVAAIDTRASSTYYADSVKGRFTISRDNAKNSVYLQMNSLKPEDTAVYYCATRRWGRRKGVGYWGQGTQVTVSS” the “polyreactivity (PSR sort gate)” value was “high polyreactivity”. With “QVQLVESGGGLVQAGGSLRLSCAAPGSIFYPNAMGWYRQAPGKEREFVAAITKRGGSTYYADSVKGRFTISRDNAKNTVYLQMNSLKPEDTAVYYCAGERSYPRAGRYNYWGQGTQVTVSS” the “polyreactivity (PSR sort gate)” value was “low polyreactivity”. In the case of “QVQLVESGGGLVQAGGSLRLSCAASGSIFGWYAMGGYRQAPGKESELVASISVTAGSTYYADSVKWRFTMSRDYAKNTVYLQMNSLKPEDTAVYYCAADDYTADAVQRFYYWGQGTQVTVSS”, the “polyreactivity (PSR sort gate)” value was “low polyreactivity”. With “QVQLVESGGGLVQAGGSLRLSCAASGFTFPYYAMGWYRPAPGKDRELVARISSGGSTHYADSVKGRFTISRDNAKNTVYVQMNSLKPEDTADYYCAREPWWGYHGEYDYWGQGTEVTVSS” the “polyreactivity (PSR sort gate)” value was “high polyreactivity”. With “QVQLVESGGGLVQAGGSLRLSCAASGFTYPANAMGWYRQAPGKERELVASISGSGGRTYYADSVKGRFTISRDNAQNTVYLQMNSLKPEDTAVYYCNRYSYWYRGEYGYWGQGTQVTVSS” the “polyreactivity (PSR sort gate)” value was “high polyreactivity”. In the case of “QVQLQESGGGLVQAGGSLRLSCAASGNIVDADIMGWYRQAPRKERELVASITDGGSTNYADSVKGRFTISRDNAKNTVYLQMNSLIPEDTAVYYCAAISYPDIPTYFDYDSEYFYWGQGTQVSVSS”, the “polyreactivity (PSR sort gate)” value was “low polyreactivity”. In the case of “QVQLVESGGGLVQAGGSLRLSCAASGSIKDNVMGWYRQAPGKERELVAAITRSAGRTYYADSVMGRFTISRDNEKNTVYLQMNSLKPEDTAVYYCASQAERYGYEYWGQGTQVTVSS”, the “polyreactivity (PSR sort gate)” value was “low polyreactivity”. For “QVQLVESGGGLVQAGGSLRLSCDASGRIFSENAMGWYRQAPGKERELVDAITGNGGDTYYADSVKGRFTISRDNAKNTVYLQMNSLKPEDTAVYYCAAVTGGLGGDYWGQGTQVTVSS”, the “polyreactivity (PSR sort gate)” value was “low polyreactivity”. For “QVQLVESGGGLVQAGGSLRLSCASSGRTFYINAMVWYRQAPGKERELVAAISIRGGRTYYADSVKGRFTISRDNAKNTVYLQMISLKPEDTAVYYCAADYGSLRQRTLYEYWGQGTQVTVSS”, the “polyreactivity (PSR sort gate)” value was “low polyreactivity”. In the case of “QVQLVESGGGLVQAGGSLRLSCAASGLTFGDYTMGWYRQAPGKERELVAAISTSGGSTYYADSVKGRFTISRDNAKNTVYLQMNSLKPEDTAVYYCNARRTHTRSHYYYWGQGTQVTVSS”, the “polyreactivity (PSR sort gate)” value was “high polyreactivity”. In the case of “QVQLVESGGGLVQAGGSLRLSCSACGSIFFYYAMGWYRQAPGKERELVAAITFTGGSTYYADSVKGRFTISRDNAKNTVYLRMNSLKPEDTAVYYCAADWYYGDEYEYWGQGTQVTVSS”, the “polyreactivity (PSR sort gate)” value was “high polyreactivity”. In the case of “QVQLVESGGGLVQAGGSLRLSCAASGSIFSGYAMGWYRQAPGKERELVAAISGSGGSTFYADSVKGRFTISRDNAKNTVYLQMNSLKPEDTAVYYCAARRIAPYGRYDYWGQGTQVTVSS”, the “polyreactivity (PSR sort gate)” value was “low polyreactivity”. For “QVQLVESGGGLVQAGGSLRLSCAASGRTFLRNAMGWYRQAPGKEREFVAAISTRDGRTYYADSVKGRFTISRDNAKNTVYLQMNSLKPEDTAVYYCNAVNTAGYYYYYAFFWDYDYWGQGTQVTVSS”, the “polyreactivity (PSR sort gate)” value was “high polyreactivity”. For “QVQLVESGGGLVQAGGSLRLICAPSGRITLRYAIGWYRQAPRKERDFVAAITVSGGSTYYADSVKGRFTISRDNAKNTVYLMMNRLKPEDTAVYYCAVRQKTQYGSKHDYWGQGTQVTVSS”, the “polyreactivity (PSR sort gate)” value was “high polyreactivity”. In the case of “QVQLVESGGGLVQAGGSLRLSCAASGSILYWYAMGWYRQAPGKERELVAAITSSGDSTDYADSVKGRFTISRDNAKKTVYLQMNILKPEDSAVYYCNVQPVYADHFTEFDYCGQGTQVTVSS”, the “polyreactivity (PSR sort gate)” value was “low polyreactivity”. For “QVQLQESVGGLVQAGGSLLLSCAASGNIFPTDRMGWYRQAPGKELEFVATISHGGSTNYADSVKGRFTISRDNAKNTVYLEMNSLKPEDTAVYYCAVWSLGRWRHYFWGQGTQVTVSS”, the “polyreactivity (PSR sort gate)” value was “low polyreactivity”. In the case of “QVQLVESGGGLVQAGGSLRLSCAASGLTFVDNAMGWYRQAPGKERELVAAISFRDGSTYYADSVKGRFTISRDNAKNTVYLQMNSLKPEDTAVYYCAAVGQTHPTSPLSTKYDYWGQGTQVTVSS”, the “polyreactivity (PSR sort gate)” value was “low polyreactivity”. With “QVQLEESGAGLVQAGCSLRLSCAASGSTLFNNAMGWYRQAPGKERELVAAITFSGASTYYADSVKGRFTISRDNAKNTVYLQMNSLKPEDTAVYYCGADPSFNYIPVYYFDYDYWGQATQVTVSS” the “polyreactivity (PSR sort gate)” value was “low polyreactivity”. With “QVQLVESGGGLVQAGGSLRLSCAASGSTFYPNAMGWYRQAPGKEREFVAAITWSGGRTYYADSVKGRFTISRDNAKNTVYLLMNSLKPEDTAVYYCAVGGNSRRYWGQGTQVTVSS” the “polyreactivity (PSR sort gate)” value was “high polyreactivity”. In the case of “QVQLVESGGGLVQAGGSLRLSCAASGSIFHTYAMGWYRQAPGKERELVAAITVSGGDTYYADSVKGRFTISRDNAKNTGYLQMNSLKPEDTAVYYCAKRIFDTFDSWGQGTQVTVSS”, the “polyreactivity (PSR sort gate)” value was “low polyreactivity”. In the case of “QVQLVESGGGLVQAGGSLRLSCAASGRIFLGNAMGWYRQAPGKERELVAAIDASGGSTYYADSVKGRFTISRDNAKNTVYLQMNSLKPEDTAVYYCAADRGFLRSFAPGNMDYWGQGTQVTVSS”, the “polyreactivity (PSR sort gate)” value was “low polyreactivity”. In the case of “QVQLVESGGGLVQAGGSLRLSCAASGRTFTRYAMGWYRQAPGKERELVAAISWSGTSTHYADSVKGGFTISRDNATNTVYLQMNSLKPEDTAVYYCAARRYPVLKYDYWGQGTQVTVSS”, the “polyreactivity (PSR sort gate)” value was “high polyreactivity”. For “QVQLVESGGGLVQAGGSLRLSCAASGYTFTIYSMGWYRQAPGKERELVAAISWNGGRTYYADSVKGRFTISRDNAKNTVYLKMNSLKPEDTAVYDCNADNFSAGDYWGQGTQVTVSS”, the “polyreactivity (PSR sort gate)” value was “high polyreactivity”. In the case of “QVQLVESGGGLVQAGGSLRLSCAASGNIFRPYTMGWYRQAPGKERELVARISSGGSTNYADSVKGRFTISRDNGKYTDYFQLNSLKPEVTAVYYWSKRYGTVLSRYGYLGQGTQVTVSS”, the “polyreactivity (PSR sort gate)” value was “high polyreactivity”. For “QVQLVESGGGLVQAGGSLRLSCASSGSIFYDNAMGWYRQAPGKDRELVAAITVTGGSTYYADSVKGRFTISRDNAKNTVYLQMNSLKPEDTAVFYCAADPDYFDYWGQGTQVTVSS”, the “polyreactivity (PSR sort gate)” value was “low polyreactivity”. In the case of “QVQLVESGGGLVQAGGSLRLSCADSGRTFWSNSMGWYRQAPGKERELVARIDSTYYADSVKGRFTISRDNAKNTVYLQMNSLKPEDTAFYYCNADTIYYAGDFRYDYWGQGTQVTVSS”, the “polyreactivity (PSR sort gate)” value was “low polyreactivity”. In the case of “QVQLVQSGAGLVQARGSLRLSCAASGSTFRRNVMGWYRQAPGTERELVAAISWSGTSTNYADSVKWRFTISRDNAKNTVYLQMNSLKPEDTAVYYCATQSLYYRWGLDYWGQGTQVTVSS”, the “polyreactivity (PSR sort gate)” value was “high polyreactivity”. With “QVQLVESGGGLVQAGGSLRLSCAASGRTFTPNAMGGYRQAPGKERELVAAIDWRGGRTYYADSVKGRFTISRDNAKNTVYLQMNSLKPEDSAVYYCAARVDGYHYKSAGYSYGVYYWGQGTQVTVSS” the “polyreactivity (PSR sort gate)” value was “low polyreactivity”. With “QVQLVESGGGLVQAGGSLRLSCAASGSIFEGNTMGWYRQAPGKERELVASISSTANTYYADSVKGRFTLSRDNAKKNVYLQMNSLKPEDTAVYYCNVARYFLVPVVDDNYWGQGTQVTVSS” the “polyreactivity (PSR sort gate)” value was “low polyreactivity”. In the case of “QVQLVESGGGLVQAGGSLRLSCAASGSIFQYNVKGWYRQEPGKEREFVADISSSGGSTYYADSVKGRFTISRDNAKNTVYLQMNSLKPEDTAVYYCNADPGYVFYRDEYWGQGTQVTVSS”, the “polyreactivity (PSR sort gate)” value was “low polyreactivity”. With “QVQLVESRGGIVQAGGSLRLSCAASGSIFEQYAMGLYRQAPGKERELVAAISKRGTSTNYADSVKGRVTISRDNAKNTVYLQMNSLKPEDTAVYYCNADSRHRRNYDYWGQGTHVTVSS” the “polyreactivity (PSR sort gate)” value was “high polyreactivity”. In the case of “QVQLVESGGGLVQAGGSLRLSCAASGRTFPYNAMGWYRQAPGKERELVAAITSSGGSTYYADSVKGRFTISRDNAKNTVYLQMNSLKPEDTAVYYCAKGYYSPNYYYWGQGTQVTVSS”, the “polyreactivity (PSR sort gate)” value was “high polyreactivity”. With “QVQLVESGGGLVQAGGSLRLSCAASGSILTYNAMGWYRQAPGKERELVAAITSSGNTNYADSVKGRFTISRDNAKNTVYLQMNSLKPEDTAVYYCARDLREWGQGTQVTVSS” the “polyreactivity (PSR sort gate)” value was “low polyreactivity”. In the case of “QVQLVESGGGLVQAGGSLRLSCAASGSIFVVNTLGWYRQAPGKEREFVAPISYNGGRTSYADSVKGRFTISRDNAKNTVYLQMNSLKPEDTEVYYCAAGGSVPRAYHISYFTQYDYWGQGTQVTVSS”, the “polyreactivity (PSR sort gate)” value was “low polyreactivity”. With “QVQLVESGGGLVQAGGSLRLSCAASGRILPSNAMGWYRQSPGKERELVATISSSGGDTYYADSVKGRFTISRDNAKNTVYLQMNSLKPEDTAGYYCAADSTWEGGYKYEYWGQGTQVTVSS” the “polyreactivity (PSR sort gate)” value was “low polyreactivity”. With “QVQLVESGGGLVQAGGSLRLSCAASGSIFLDYAMGWYRQAPGKERELVAANTSDGSTYYADSVKGRFTISRDKAKNTVYLQMNSLKPEDTAVYYCAVQDTSYDVQYSYGYWGQGTHVTVSS” the “polyreactivity (PSR sort gate)” value was “low polyreactivity”. In the case of “QVQLVESGGGLVQAGGSLRLSCAASGSTFWNAMGWYRPGPGKERELVAAIRLSGGSTYYADSVKGRFTISRDNAKNTVYLQMNSLKPEDTAVYYCNADVTFGYWEYDYWGQGTQVTVSS”, the “polyreactivity (PSR sort gate)” value was “low polyreactivity”. With “QVQLVESGGGLVQAGGSLRLSCAASGSIFSTYAMGWYRQAPGKERELVAAISQGGSSTYYADSVKGRFTISRDIAKNTVYLQMKSLKAEDTAVYYCAKFPYLKFGYDYWGQCTQVTVSS” the “polyreactivity (PSR sort gate)” value was “high polyreactivity”. For “QVQLVESGGGLVQAGGSLRLSCAASGSTFNYNAMGWYRQAPGKERELVATITTSGGSTYYADSVKGRFTISRDNAKNTVYLQMNSLKPEDTAVYYCAARYPWYRTIDRYDYWGQGTQVTVSS”, the “polyreactivity (PSR sort gate)” value was “low polyreactivity”. In the case of “QVQLVESGGGLVQAGGSLRLSCAASGSTFYLYAMGWYRQAPGKERELVADISWDGDSTYYADSVKGRFTISRDNAKNTVYLQMNSLKPEDTAVYYCAADYFYYYEQYLWYTYDYWGQGTQVTVSS”, the “polyreactivity (PSR sort gate)” value was “high polyreactivity”.
